T1: human GPR15 (human, UniProt P49685 1-360)
T1 sequence (looked up): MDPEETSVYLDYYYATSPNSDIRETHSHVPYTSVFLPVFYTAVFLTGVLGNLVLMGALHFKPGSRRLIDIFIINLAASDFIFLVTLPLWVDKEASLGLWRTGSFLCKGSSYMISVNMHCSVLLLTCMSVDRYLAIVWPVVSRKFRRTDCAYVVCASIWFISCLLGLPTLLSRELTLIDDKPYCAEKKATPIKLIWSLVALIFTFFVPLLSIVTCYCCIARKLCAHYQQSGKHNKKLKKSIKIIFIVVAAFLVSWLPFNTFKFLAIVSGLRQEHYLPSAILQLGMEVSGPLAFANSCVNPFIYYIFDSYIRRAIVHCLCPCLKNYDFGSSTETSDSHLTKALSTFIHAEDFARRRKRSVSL

T2: mouse GPR15 (mouse, UniProt Q0VDU3 1-360)
T2 sequence (looked up): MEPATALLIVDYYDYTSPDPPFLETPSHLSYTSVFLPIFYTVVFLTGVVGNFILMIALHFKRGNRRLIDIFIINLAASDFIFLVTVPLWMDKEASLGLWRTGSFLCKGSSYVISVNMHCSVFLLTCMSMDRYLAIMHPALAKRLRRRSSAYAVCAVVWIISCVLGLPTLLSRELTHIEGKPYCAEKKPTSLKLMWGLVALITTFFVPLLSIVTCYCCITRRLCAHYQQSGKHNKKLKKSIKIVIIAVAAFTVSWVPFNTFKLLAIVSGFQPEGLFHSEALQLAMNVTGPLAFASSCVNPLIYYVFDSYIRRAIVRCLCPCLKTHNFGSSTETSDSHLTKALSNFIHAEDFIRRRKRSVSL


How the values were obtained:
[1] = molecular target: T1, human GPR15; assay: cell-based or functional assay
[2] = molecular target: T2, mouse GPR15; assay: cell-based or functional assay

Binder	EC50 of GPR15 activation, Aequorin assay (luminescence, calcium) [1] [µM]	EC50 of GPR15 activation, Aequorin assay (luminescence, calcium) [2] [µM]	EC50 in in vitro cellular assays (aequorin assay; cAMP in CHO-GPR15 and HEK-GPR15 cell lines) [1] [µM]
QKPQLWVVPGALPQV	~2	~2	
c10orf99 1-57, synthetic peptide KRRPAKAWSGRRTRLCCHRVPSPNSTNLKGHHVRLCKPCKLEPEPRLWVVPGALPQV (SEQ ID NO: 6) (ligand) peptide: KRRPAKAWSGRRTRLCCHRVPSPNSTNLKGHHVRLCKPCKLEPEPRLWVVPGALPQV			< 0.01
